Test results as given in patent US12419964B2, “Antibody drug conjugate (ADC) targeting Nectin 4 and comprising an exatecan payload” (ELI LILLY AND COMPANY, priority 2023, dated 2025).

Columns and labels:
[1] = target: T1, Nectin-4 (Homo sapiens, UniProt Q96NY8); conditions: described in WO2022/207822 and WO2022/207825; cited from earlier work
T1 construct: endogenous in cells
T1 sequence (Q96NY8 32-510): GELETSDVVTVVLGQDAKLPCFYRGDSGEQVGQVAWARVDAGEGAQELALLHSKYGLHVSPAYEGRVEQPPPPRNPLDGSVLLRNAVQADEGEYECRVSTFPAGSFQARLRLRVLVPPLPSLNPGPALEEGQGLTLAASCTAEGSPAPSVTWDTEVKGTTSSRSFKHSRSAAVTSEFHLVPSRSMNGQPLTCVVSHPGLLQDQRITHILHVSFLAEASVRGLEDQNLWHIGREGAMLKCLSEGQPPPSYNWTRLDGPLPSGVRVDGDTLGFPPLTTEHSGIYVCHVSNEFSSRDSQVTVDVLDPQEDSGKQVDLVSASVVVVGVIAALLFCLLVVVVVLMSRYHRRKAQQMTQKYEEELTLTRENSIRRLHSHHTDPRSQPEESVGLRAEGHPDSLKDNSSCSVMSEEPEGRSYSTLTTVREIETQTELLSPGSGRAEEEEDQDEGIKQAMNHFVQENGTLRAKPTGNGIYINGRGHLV

[2] = Hydrophobic interaction chromatography (HIC) versus naked 15A7.5 mAb; format: physicochemical; conditions: compared with naked 15A7.5 mAb (FIG. 2)
Description: As determined by SEC-HPLC, less than 5% material was aggregated. […] (See FIG. 2 and corresponding Brief Description). […] (See FIG. 3 and corresponding Brief Description). In vitro cytotoxic activity was assessed for the HCT-116-2G10 clone expressing human nectin-4. (See FIG. 4 and corresponding Brief Description).

B1: 15A7.5: anti-Nectin-4 monoclonal antibody described in WO2022/207822 and WO2022/207825 (antibody)
heavy: EVQLVESGGGLVQPGGSLRLSCAASGFTFSNYGMAWVRQAPGKGLEWVSFISNLAYGINYADTVTGRFTISRDNAKNSLYLQMNSLRAEDTAVYYCARGARATGWFAYWGQGTLVTVSSASTKGPSVFPLAPSSKSTSGGTAALGCLVKDYFPEPVTVSWNSGALTSGVHTFPAVLQSSGLYSLSSVVTVPSSSLGTQTYICNVNHKPSNTKVDKRVEPKSCDKTHTCPPCPAPEFEGGPSVFLFPPKPKDTLMISRTPEVTCVVVDVSHEDPEVKFNWYVDGVEVHNAKTKPREEQYNSTYRVVSVLTVLHQDWLNGKEYKCKVSNKALPASIEKTISKAKGQPREPQVYTLPPSREEMTKNQVSLTCLVKGFYPSDIAVEWESNGQPENNYKTTPPVLDSDGSFFLYSKLTVDKSRWQQGNVFSCSVMHEALHNHYTQKSLSLSPGK
light: DIQMTQSPSSLSASVGDRVTITCKASQNVDTHVAWYQQKPGKAPKALIYSASYRYSGVPSRFSGSGSGTDFTLTISSLQPEDFATYYCQQYNSYPLTFGGGTKVEIKRTVAAPSVFIFPPSDEQLKSGTASVVCLLNNFYPREAKVQWKVDNALQSGNSQESVTEQDSKDSTYSLSSTLTLSKADYEKHKVYACEVTHQGLSSPVTKSFNRGEC
[1]
  selectivity of affinity, tumor cells versus keratinocytes: selective affinity for tumor cells versus keratinocytes

B2: ETx-22: ADC of H1L2_15A7.5 anti-Nectin-4 mAb (HC SEQ ID NO:5, LC SEQ ID NO:6) conjugated via cysteines to exatecan Linker-Payload of Formula (L-P′) (conjugate)
heavy: EVQLVESGGGLVQPGGSLRLSCAASGFTFSNYGMAWVRQAPGKGLEWVSFISNLAYGINYADTVTGRFTISRDNAKNSLYLQMNSLRAEDTAVYYCARGARATGWFAYWGQGTLVTVSSASTKGPSVFPLAPSSKSTSGGTAALGCLVKDYFPEPVTVSWNSGALTSGVHTFPAVLQSSGLYSLSSVVTVPSSSLGTQTYICNVNHKPSNTKVDKRVEPKSCDKTHTCPPCPAPEFEGGPSVFLFPPKPKDTLMISRTPEVTCVVVDVSHEDPEVKFNWYVDGVEVHNAKTKPREEQYNSTYRVVSVLTVLHQDWLNGKEYKCKVSNKALPASIEKTISKAKGQPREPQVYTLPPSREEMTKNQVSLTCLVKGFYPSDIAVEWESNGQPENNYKTTPPVLDSDGSFFLYSKLTVDKSRWQQGNVFSCSVMHEALHNHYTQKSLSLSPGK
light: DIQMTQSPSSLSASVGDRVTITCKASQNVDTHVAWYQQKPGKAPKALIYSASYRYSGVPSRFSGSGSGTDFTLTISSLQPEDFATYYCQQYNSYPLTFGGGTKVEIKRTVAAPSVFIFPPSDEQLKSGTASVVCLLNNFYPREAKVQWKVDNALQSGNSQESVTEQDSKDSTYSLSSTLTLSKADYEKHKVYACEVTHQGLSSPVTKSFNRGEC
modifications: exatecan linker-payload conjugated via cysteines
[2]
  hydrophilicity by HIC profile: high homogenous hydrophilicity
